Measurements: US20050227302A1, “Induction of apoptosis via ARTS-IAP complexes” (priority 2004, published 2005)

Columns and labels:
[1] = molecular target: T1, XIAP (Homo sapiens, UniProt P98170); assay: GST pull-down assay of ARTS and XIAP; type: binding
T1 construct: made in house; host or cells: bacteria (pGEX-XIAP plasmid obtained from Dr. Colin S. Duckett)
Source text: For the glutathione-S-transferase (GST)-pull down assays, ARTS was subcloned into the pGEX 4T™ (Pharmacia Biotech) construct; GST-ARTS fusion protein was generated by Polymerase Chain Reaction (PCR) using the following primers: • BamHI-5′-[…]-3′ (SEQ ID No: 4) and • EcoRI-5′ […]-3′ (SEQ ID No: 5) and cloned into BamHI and EcoRI sites in pGEX 4T. Preparation of Beads
For in vitro binding studies, recombinant GST-ARTS or GST-XIAP fusion proteins were purified from bacteria. After sonication, 0.1% Triton X-100 and protease inhibitors (Mini-Complete™, Roche) were added to the bacterial extract followed by 10,000 rotations per minute (RPM) centrifugation. Supernatants of bacterial extracts were collected and incubated in the presence of glutathione-Sepharose 4B beads (Amersham Biosciences) for 30 minute at 4° C. The beads were washed three times.
Cells were lysed in RIPA buffer (150 mM NaCl, 50 mM Tris-HCl (pH 8), 1% NP-40, 0.1% SDS, 0.5% deoxycholate acid containing protease inhibitors (mini Complete, Roche)). Samples were divided into two tubes; one was rotated for 4 h at 4° C. with GST-ARTS fusion protein coupled with the glutathione beads, or GST-XIAP fusion protein. The second tube was incubated with glutathione beads alone (negative control). Samples were centrifuged at 4000-RPM at 4° C. for 4 minute and washed five times in lysis buffer, then boiled in sample buffer for 5 minutes to elute bound proteins Proteins were separated on 12.5% SDS-PAGE gel followed by Western blot analysis using monoclonal anti-ARTS antibody (Sigma), monoclonal anti-XIAP antibody (BD Transduction Laboratories) or monoclonal anti-myc antibody (Clontech).

[2] = tested on: CIAP; assay: Interaction of ARTS with CIAP; type: binding
[3] = molecular target: T2, Myc epitope-tagged wild-type XIAP (Homo sapiens (Human), UniProt P98170 1-497); assay: immunofluorescence co-localization by confocal microscopy in COS-7 cells transfected with AU5-ARTS and pcDNA3-Myc-XIAP, treated with etoposide
T2 construct: Expressed by transient transfection in COS-7 cells and used as cell lysate; The construct came from Dr. Colin S. Duckett; also called myc-tagged XIAP; mycXIAP
Method: FIG. 5. ARTS and XIAP co-localize during apoptosis. Immunofluorescence assay of COS-7 cells with anti-ARTS antibody (left column) and anti-XIAP antibody (second column from left). Nuclei are stained with Dapi (third column from left). Merged images are shown in the right column. Cells were untreated (top panel) or treated with […] etoposide for 2 hours (middle panel) or 16 hours (lower panel). Cells were analyzed using confocal microscopy (magnification 60). Non-apoptotic cells had very little overlap between ARTS and XIAP staining (top panel), with ARTS primarily localized to mitochondria and XIAP staining cytoplasmic, with some peri-nuclear concentration. Two hours after induction of apoptosis, co-localization of ARTS and XIAP occurred primarily near the nucleus (middle panel). After 16 hr both proteins perfectly co-localized in the nucleus.
To confirm the finding that ARTS-XIAP complexes exist in apoptotic cells, COS-7 cells transfected with AU5-ARTS and pcDNA3-Myc-XIAP were visualized by confocal microscopy. Apoptosis was induced with etoposide, and cells were stained after 2 and 16 hours. In non-apoptotic cells, ARTS and XIAP had distinct, essentially non-overlapping distributions, with ARTS primarily localized to mitochondria, whereas XIAP was localized to the cytoplasm, with some peri-nuclear concentration (FIG. 5, top panel). […]

T1 sequence (P98170 whole entry): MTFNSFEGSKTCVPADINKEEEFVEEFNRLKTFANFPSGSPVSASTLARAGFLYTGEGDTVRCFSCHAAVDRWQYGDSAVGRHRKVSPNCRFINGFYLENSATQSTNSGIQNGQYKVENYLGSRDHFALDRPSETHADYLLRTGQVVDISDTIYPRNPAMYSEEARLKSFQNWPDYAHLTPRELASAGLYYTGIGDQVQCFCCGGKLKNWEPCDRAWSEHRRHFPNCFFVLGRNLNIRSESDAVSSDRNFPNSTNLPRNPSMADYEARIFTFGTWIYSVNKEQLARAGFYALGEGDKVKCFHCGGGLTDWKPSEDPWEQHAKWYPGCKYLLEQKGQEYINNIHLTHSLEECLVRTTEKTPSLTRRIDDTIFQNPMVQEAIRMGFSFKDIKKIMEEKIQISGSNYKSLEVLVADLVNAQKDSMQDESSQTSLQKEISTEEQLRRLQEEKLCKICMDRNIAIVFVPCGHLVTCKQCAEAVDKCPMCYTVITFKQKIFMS
T2 sequence (P98170 whole entry): as above

- binding to GST-XIAP ([1]; lysates of COS-7 cells transfected with AU5-tagged construct, Western blot anti-AU5): bound to XIAP
- binding of XIAP to GST-ARTS ([1]; lysates of COS-7 cells transfected with pcDNA3 mycXIAP, Western blot anti-XIAP and anti-Myc): XIAP bound to ARTS
- binding result [3]: binds
B1: AU5-ARTS (other)
chain: MIKRFLEDTTDDGELSKFVKDFSGNASCHPPEAKTWASRPQVPEPRPQAPDLYDDDLEFRPPSRPQSSDNQQYFCAPAPLSPSARPRSPWGKLDPYDSSEDDKEYVGFATLPNQVHRKSVKKGFDFTLMVAGESGLGKSTLVNSLFLTDLYRDRKLLGAEERIMQTVEITKHAVDIEEKGVRLRLTIVDTPGFGDAVNNTECWKPVAEYIDQQFEQYFRDESGLNRKNIQDNRVHCCLYFISPFGHGYGPSLRLLAPPGAVKGTGQEHQGQGCH
notes: Expressed in transfected COS-7 cells and used as lysate or stained in cells; also called pEF1-AU5-ARTS; AU5-tagged ARTS; not shown: AU5 tag attached to the N' terminus of ARTS
- interaction with CIAP [2]: interact with ARTS
